# Article PMC4508897
# Molecular target: human wt Ecad-GFP (wild-type E-cadherin fused to EGFP) (human) (UniProt P12830)
# Assay: TEM of gold nanoparticle
substance,measurement,value
human wt Ecad-GFP (wild-type E-cadherin fused to EGFP) (from UniProt P12830 23-882) (natural protein),percent of NPs at <15 nm from their nearest neighbour,20.6%
